Test results as given in patent US20140099308A1 (IMMUNOGEN, published 2014).
Numbering of substitutions follows the chain as printed. Where two headings read alike, the source gives them in different places.

B1: muEGFR-7 antibody (antibody, V domains shown)
VH: QVQLQQSGAELARPGASVKLSCKASGYTFTSYWMQWVKQRPGQGLECIGTIYPGDGDTTYTQKFKGKATLTADKSSSTAYMQLSSLASEDSAVYYCARYDAPGYAMDYWGQGTSVTVSS
VL: DIQMTQSPSSLSASLGGKVTITCKASQDINNYLAWYQHKPGKGPRLLIHYTSTLHPGIPSRFSGSGSGRDYSFSISNLEPEDIATYYCLQYDNLLYTFGGGTKLEIKR
notes: Murine hybridoma antibody (ATCC PTA-11332)
B2: muEGFR-12 antibody (antibody, V domains shown)
VH: B1 VH with A9T, T59R, T61I
VL: DVQITQSPSYLAASPGETITINCRASKSISKYLAWYQEKPGKTNKLLIYSGSTLQSGIPSRFSGSGSGTDFTLTISSLEPEDFAMYYCQQHNEYPWTFGGGTKLEIK
notes: Murine hybridoma antibody (ATCC PTA-11333)
B3: muEGFR-6 antibody (antibody, V domains shown)
VH: B1 VH with T50A, I51L, T58A, T59R, K74R, S118A
VL: B1 VL with L33I
notes: Murine hybridoma antibody (ATCC PTA-11331)

Key:
human EGFR [1] = target: T1, human EGFR (human, UniProt P00533 25-1210); test: flow cytometry competition on A431 cells; competitor: 10 nM biotinylated TGFα
human EGFR [2] = target: T1, human EGFR; test: cell-based or functional assay
human EGFR [3] = target: T1, human EGFR; test: flow cytometry competition on MDA-MB468 cells; competed: 0.3 nM biotinylated 528 antibody; streptavidin-Alexa 488 detection
Procedure: (§1) To distinguish binding epitopes of anti-EGFR antibodies, antibody binding competition assays were done using flow cytometry. […] In brief, the biotinylated antibody was pre-mixed with varying concentration of ‘competing’ antibodies. The antibody mixture was then incubated with cells on ice for 2h. […] After washing, the cells were fixed and analyzed in FACScalibur. The geometric mean fluorescence intensity was plotted against antibody concentration in semi-log plot and normalized so that 100% represents the maximal binding of the biotinylated antibody in absence of other antibody and 0% represents the background staining in absence of the biotinylated antibody.

human EGFR [4] = target: T1, human EGFR; test: cell-based or functional assay; remark: listed apart in the source
human EGFR [5] = target: T1, human EGFR; test: flow cytometry competition on MDA-MB468 cells; competed: 0.2 nM biotinylated cetuximab; streptavidin-Alexa 488 detection
Procedure: as §1

human EGFR [6] = target: T1, human EGFR; test: cell-based or functional assay; remark: listed apart in the source
huEGFRdIII-Fc [7] = target: T2, huEGFRdIII-Fc (human; murine, UniProt P00533 334-525); test: ELISA on the EGFR ECD-Fc construct (A450)
T2 construct: range 310-501; Residue numbers count on the mature receptor, not on the precursor; also called human EGFR domain III; not shown: murine IgG2A hinge, CH2, and CH3 region

huEGFR-Fc [8] = target: T3, huEGFR-Fc (human; murine, UniProt P00533 25-645); test: ELISA on the EGFR ECD-Fc construct (A450)
T3 construct: extracellular domain; also called human EGFR ECD Fc fusion; wild type human EGFR; not shown: murine IgG2A hinge, CH2, and CH3 region (pmuFc2ANL vector)

chEGFRdIII-Fc [9] = target: T4, chEGFRdIII-Fc (murine; human, UniProt Q01279 334-483; P00533 484-505; Q01279 506-525); test: ELISA on the EGFR ECD-Fc construct (A450)
T4 construct: range 310-459;range 460-481;range 482-501; the split into three pieces follows from that; also called human/murine EGFR chimera; not shown: murine IgG2A hinge, CH2, and CH3 region

human EGFR [10] = target: T1, human EGFR; test: flow cytometry competition on A431 cells; competitor: 1.8 nM biotinylated EGF
Procedure: To examine if the EGFR antibodies inhibit the ligand binding to the EGFR, the binding of biotinylated EGFR ligand to the A431 cells was measured by flow cytometry in the presence of anti-EGFR antibodies. […] Prior to competition assay, the binding curve of the biotinylated ligands was established. […] Cells were then washed twice with FACS buffer and incubated with streptavidin-APC conjugate (Jackson Immunoresearch) for 15 min on ice. Cells were washed twice with FACS buffer and analyzed in FACS Calibur (BD Bioscience) using FlowJo program (Tree Star). The geometric mean fluorescence intensities were plotted against the antibody concentration in a semi-log plot.

huEGFRdIII-Fc [11] = target: T2, huEGFRdIII-Fc; test: ELISA on the EGFR ECD-Fc construct (A450); remark: listed apart in the source
huEGFR-Fc [12] = target: T3, huEGFR-Fc; test: ELISA on the EGFR ECD-Fc construct (A450); remark: listed apart in the source
chEGFRdIII-Fc [13] = target: T4, chEGFRdIII-Fc; test: ELISA on the EGFR ECD-Fc construct (A450); remark: listed apart in the source
muEGFRdIII-Fc [14] = target: T5, muEGFRdIII-Fc (murine, UniProt Q01279 334-525); test: ELISA on the EGFR ECD-Fc construct (A450)
T5 construct: range 310-501; Residue numbers count on the mature receptor, not on the precursor; also called murine EGFR domain III; not shown: murine IgG2A hinge, CH2, and CH3 region

huEGFRdIII-Fc [15] = target: T2, huEGFRdIII-Fc; test: ELISA on the EGFR ECD-Fc construct (A450); remark: listed apart in the source
huEGFR-Fc [16] = target: T3, huEGFR-Fc; test: ELISA on the EGFR ECD-Fc construct (A450); remark: listed apart in the source
chEGFRdIII-Fc [17] = target: T4, chEGFRdIII-Fc; test: ELISA on the EGFR ECD-Fc construct (A450); remark: listed apart in the source
muEGFRdIII-Fc [18] = target: T5, muEGFRdIII-Fc; test: ELISA on the EGFR ECD-Fc construct (A450); remark: listed apart in the source

Molecule	EC50 (human EGFR [1]) [nM]	EC50 (nM), anti-proliferative activity in NCI-H292 cells (human EGFR [2]) [nM]	IC50 (read off the curve) (human EGFR [3]) [nM]	EC50 (nM), anti-proliferative activity in HCC827 cells (human EGFR [4]) [nM]	Maximal inhibition (%), HCC827 cells (human EGFR [4]) [%]	IC50 (read off the curve) (human EGFR [5]) [nM]	EC50 (nM), anti-proliferative activity in NCI-H292 cells (human EGFR [6]) [nM]	EC50 (huEGFRdIII-Fc [7]) [nM]	EC50 (huEGFR-Fc [8]) [nM]	EC50 (chEGFRdIII-Fc [9]) [nM]	EC50 (human EGFR [10]) [nM]	EC50 (huEGFRdIII-Fc [11]) [nM]	EC50 (huEGFR-Fc [12]) [nM]	EC50 (chEGFRdIII-Fc [13]) [nM]	binding result (muEGFRdIII-Fc [14])	EC50 (huEGFRdIII-Fc [15]) [nM]	EC50 (huEGFR-Fc [16]) [nM]	EC50 (chEGFRdIII-Fc [17]) [nM]	binding result (muEGFRdIII-Fc [18])
TGFα (ligand)	1.34	–	–	–	–	–	–	–	–	–	–	–	–	–	–	–	–	–	–
B1	–	0.21	~2	0.03	72	~2	0.4	0.043	0.0328	0.294	–	–	–	–	–	–	–	–	–
B2	1.34	–	~2	0.7	63	~2	–	–	–	–	2.93	0.0572	0.0485	1.24	no binding (tested: 10^-7 M)	–	–	–	–
B3	1.18	2.59	~2	0.3	72	~2	5.6	–	–	–	2.55	–	–	–	–	0.0694	0.0484	0.867	no binding (tested: 10^-7 M)
